Non-standard residues stand in square brackets, D forms with d. No end group written: not given here. Cit = NC(=O)NCCC[C@H](N)C(=O)O
Legend:
[1] = molecular target: T1, huPAD4-deiminated human recombinant histone 2A (human); assay: ELISA, Ab 10 ug/well
T1 construct: also called H2A/p4; histone 2A/p4
Source text: (§1) The resulting OD (y-axis) is a measure for antibody binding. H1-recombinant histone 1; H1/p2-huPAD2 recombinant histone 1; H1/p4-huPAD4 recombinant histone 1, and so forth (x-axis).

[2] = molecular target: T2, human recombinant histone 2B (human); assay: ELISA, Ab 10 ug/well
T2 construct: Non-deiminated; also called H2B
Source text: as §1

[3] = molecular target: T3, huPAD2-deiminated human recombinant histone 2B (human); assay: ELISA, Ab 10 ug/well
T3 construct: also called H2B/p2
Source text: as §1

[4] = molecular target: T4, huPAD2-deiminated human recombinant histone 3 (human); assay: ELISA, Ab 10 ug/well
T4 construct: also called H3/p2; histone 3/p2
Source text: as §1

[5] = molecular target: T5, human recombinant histone 2A (human); assay: ELISA, Ab 0.4 ug/well
T5 construct: Non-deiminated; also called H2A
Source text: as §1

[6] = molecular target: T6, huPAD2-deiminated human recombinant histone 2A (human); assay: ELISA, Ab 0.4 ug/well
T6 construct: also called H2A/p2; histone 2A/p2
Source text: as §1

[7] = molecular target: T1, huPAD4-deiminated human recombinant …; assay: ELISA, Ab 0.4 ug/well
Source text: as §1

[8] = molecular target: T3, huPAD2-deiminated human recombinant …; assay: ELISA, Ab 0.4 ug/well
Source text: as §1

[9] = molecular target: T7, huPAD4-deiminated human recombinant histone 2B (human); assay: ELISA, Ab 0.4 ug/well
T7 construct: also called H2B/p4
Source text: as §1

[10] = molecular target: T8, human recombinant histone 3 (human); assay: ELISA, Ab 0.4 ug/well
T8 construct: Non-deiminated; also called H3
Source text: as §1

[11] = molecular target: T4, huPAD2-deiminated human recombinant …; assay: ELISA, Ab 0.4 ug/well
Source text: as §1

[12] = molecular target: T9, huPAD4-deiminated human recombinant histone 3 (human); assay: ELISA, Ab 0.4 ug/well
T9 construct: also called H3/p4
Source text: as §1

[13] = molecular target: T10, human recombinant histone 4 (human, UniProt P62805 2-103); assay: ELISA, Ab 0.4 ug/well
Source text: as §1

[14] = molecular target: T11, CFC-1; assay: ELISA, Ab 0.4 ug/well
T11 construct: Positive control for anti-citrulline reactivity; also called cfc1 XG; Cfc1-peptide
Source text: as §1

[15] = molecular target: T5, human recombinant histone 2A; assay: ELISA, Ab 0.08 ug/well
Source text: as §1

[16] = molecular target: T6, huPAD2-deiminated human recombinant …; assay: ELISA, Ab 0.08 ug/well
Source text: as §1

[17] = molecular target: T1, huPAD4-deiminated human recombinant …; assay: ELISA, Ab 0.08 ug/well
Source text: as §1

[18] = molecular target: T2, human recombinant histone 2B; assay: ELISA, Ab 0.08 ug/well
Source text: as §1

[19] = molecular target: T3, huPAD2-deiminated human recombinant …; assay: ELISA, Ab 0.08 ug/well
Source text: as §1

[20] = molecular target: T7, huPAD4-deiminated human recombinant …; assay: ELISA, Ab 0.08 ug/well
Source text: as §1

[21] = molecular target: T4, huPAD2-deiminated human recombinant …; assay: ELISA, Ab 0.08 ug/well
Source text: as §1

[22] = molecular target: T9, huPAD4-deiminated human recombinant …; assay: ELISA, Ab 0.08 ug/well
Source text: as §1

[23] = molecular target: T10, human recombinant histone 4; assay: ELISA, Ab 0.08 ug/well
Source text: as §1

[24] = molecular target: T11, CFC-1; assay: ELISA, Ab 0.08 ug/well
Source text: as §1

[25] = molecular target: T11, CFC-1; assay: ELISA, Ab 0.08 ug/well; remark: listed apart in the source
Experimental: (§2) Biotin and citrulline-containing peptides derived from fibrinogen and vimentin were immobilized on NEUTRAVIDIN®-coated 96-well ELISA plates (0.3 μg/well). CFC-1 and CFC-0 were coated at the same concentration and served as positive and negative controls, respectively, for specific anti-citrulline reactivity and as coating controls. Non-coated wells were used to test for aspecific binding of the antibodies. […] Detection of bound anti-citrulline antibodies was performed by incubating the wells with rabbit anti-human HRP (1:2000) for 1 hour at RT followed by incubation with TMB substrate. The resulting OD (y-axis) is a measure for antibody binding.
(§3) Biotin-labeled and citrulline-containing fibrinogen and vimentin peptides (Table 5) were also tested for reactivity with the therapeutic antibodies. Peptides were coated on 96-well NEUTRAVIDIN®-ELISA plates.

[26] = molecular target: T12, msFibα XH (mouse, X at position 15 = citrulline; biotin-labelled); assay: ELISA, Ab 0.08 ug/well
T12 peptide: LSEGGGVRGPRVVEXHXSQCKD
Experimental: as §2, §3

[27] = molecular target: T13, msFibα XG (mouse, X at position 8 = citrulline; biotin-labelled); assay: ELISA, Ab 0.08 ug/well
T13 peptide: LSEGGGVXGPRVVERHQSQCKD
Experimental: as §2, §3

[28] = molecular target: T14, huFibα XH (human, X at position 15 = citrulline; biotin-labelled); assay: ELISA, Ab 0.08 ug/well
T14 peptide: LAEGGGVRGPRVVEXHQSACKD
Experimental: as §2, §3

[29] = molecular target: T15, huFibα XG (human, X at position 8 = citrulline; biotin-labelled); assay: ELISA, Ab 0.08 ug/well
T15 peptide: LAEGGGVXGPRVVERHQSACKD
Experimental: as §2, §3

[30] = molecular target: T16, msFibβ XG (mouse, also: biotin-labelled); assay: ELISA, Ab 0.08 ug/well
T16 construct: also called mouse fibrinogen β peptide
T16 peptide: EPTDSLDA[Cit]GHRPVDRR
Experimental: as §2, §3

[31] = molecular target: T17, msVim XS/XL (mouse, also: biotin-labelled); assay: ELISA, Ab 0.08 ug/well
T17 construct: also called mouse vimentin peptide
T17 peptide: YVT[Cit]SSAV[Cit]L[Cit]SSVP
Experimental: as §2, §3

[32] = molecular target: T2, human recombinant histone 2B; assay: ELISA, Ab 0.000128 ug/well
Source text: as §1

[33] = molecular target: T7, huPAD4-deiminated human recombinant …; assay: ELISA, Ab 0.000128 ug/well
Source text: as §1

[34] = molecular target: T10, human recombinant histone 4; assay: ELISA, Ab 0.000128 ug/well
Source text: as §1

B1: RhmAb2.102 (antibody, human IgG1, lambda)
heavy: not shown
light: QSVLTQPPSMSAAPGQKVTISCSGSSSNIGNNYVSWYQQVPGTAPKLLIYDDNKRPSGIPGRFSGSKSATSATLGITGLQAGDEADYYCGSWDDNLSVVLFGGGTKLTVLGQPKAAPSVTLFPPSSEELQANKATLVCLISDFYPGAVTVAWKADSSPVKAGVETTTPSKQSNNKYAASSYLSLTPEQWKSHRSYSCQVTHEGSTVEKTVAPTECS
notes: Human IgG1 lambda; also called Rhm2.102
Question: What does the source list for B1?
Answer: OD [1]: 3.42 OD450; OD [2]: 0.247 OD450; OD [3]: 0.31 OD450; OD [4]: 2.44 OD450; OD [5]: 0.071 OD450; OD [6]: 3.08 OD450; OD [7]: 2.72 OD450; OD [8]: 0.06 OD450; OD [9]: 0.054 OD450; OD [10]: 0.08 OD450; OD [11]: 1.18 OD450; OD [12]: 0.166 OD450; OD [13]: 0.091 OD450; OD [14]: 3.12 OD450; OD [15]: 0.06 OD450; OD [16]: 1.96 OD450; OD [17]: 1.75 OD450; OD [18]: 0.054 OD450; OD [19]: 0.053 OD450; OD [20]: 0.052 OD450; OD [21]: 0.493 OD450; OD [22]: 0.093 OD450; OD [23]: 0.067 OD450; OD [24]: 2.15 OD450; OD [25]: 3.03 OD450; OD [26]: 0.076 OD450; OD [27]: 0.237 OD450; OD [28]: 0.08 OD450; OD [29]: 0.186 OD450; OD [30]: 0.515 OD450; OD [31]: 0.515 OD450; OD [32]: 0.052 OD450; OD [33]: 0.053 OD450; OD [34]: 0.06 OD450

From patent US20150307603A1 (MODIQUEST B V, published 2015)
